Experimental data published in PMC6686231.
One block for each substance: values may come before it.

Legend:
[1] = molecular target: TbRpf2 (T. brucei homologue of Rpf2), endogenous (T. brucei (endogenous in 10×-Ty-TbRrs1 cells)); experiment: co-IP; whole-cell extract of 10×-Ty-TbRrs1 T. brucei cells, beads with anti-P34/P37, anti-TbL5 or anti-TbRpf2 antibody, anti-Ty Western blot of pellet and supernatant; without RNase A
[2] = molecular target: TbL5 (T. brucei homologue of ribosomal protein L5), endogenous (T. brucei (endogenous in 10×-Ty-TbRrs1 cells)); experiment: as above
[3] = molecular target: P34/P37 (trypanosome-specific proteins); experiment: as above
[4] = molecular target: TbRpf2 (T. brucei homologue of Rpf2), endogenous (T. brucei (endogenous in 10×-Ty-TbRrs1 cells)); experiment: co-IP; whole-cell extract of 10×-Ty-TbRrs1 T. brucei cells, beads with anti-P34/P37, anti-TbL5 or anti-TbRpf2 antibody, anti-Ty Western blot of pellet and supernatant; cellular RNA digested with RNase A
[5] = molecular target: TbL5 (T. brucei homologue of ribosomal protein L5), endogenous (T. brucei (endogenous in 10×-Ty-TbRrs1 cells)); experiment: as above
[6] = molecular target: P34/P37 (trypanosome-specific proteins); experiment: as above
[7] = molecular target: recombinant TbRpf2 (T. brucei); experiment: co-IP; recombinant TbRrs1 incubated with recombinant P34, TbL5 or TbRpf2, precipitated with anti-P34, anti-L5 or anti-Rpf2 antibody, with or without in vitro-transcribed 5S rRNA; anti-His Western blot of pellet and supernatant
[8] = molecular target: recombinant P34 (T. brucei); experiment: as above
[9] = molecular target: recombinant TbL5 (T. brucei); experiment: as above
[10] = system: SUMO-TbRrs1 (Trypanosoma brucei); experiment: filter binding; conditions: Filter binding with radiolabeled 5S rRNA, triplicate; buffer, salt, pH and temperature not given (as in ref 9)
[11] = system: TbRpf2 (coexpressed, untagged);(His)6-TbRrs1 (coexpressed) (Trypanosoma brucei;Trypanosoma brucei); experiment: filter binding; conditions: coexpressed complex; Filter binding with radiolabeled 5S rRNA, triplicate; buffer, salt, pH and temperature not given (as in ref 9)
[12] = system: (His)6-TbRpf2 (Trypanosoma brucei); experiment: filter binding; conditions: without TbRrs1; text also cites ref 11; Filter binding with radiolabeled 5S rRNA, triplicate; buffer, salt, pH and temperature not given (as in ref 9)

Substance: 10×-Ty-TbRrs1 (Trypanosoma brucei homologue of regulator of ribosome synthesis 1, Ty-tagged at one copy of the gene) (natural protein)
- amount in the pellet relative to pellet plus supernatant [1]: 0.02
- amount in the pellet relative to pellet plus supernatant [2]: 0.24
- amount in the pellet relative to pellet plus supernatant [3]: 0.06
- amount in the pellet relative to pellet plus supernatant [4]: 0.58
- amount in the pellet relative to pellet plus supernatant [5]: 0.63
- amount in the pellet relative to pellet plus supernatant [6]: 0.61

- amount in the pellet relative to pellet plus supernatant, with 5S rRNA [7]: 0.65
- amount in the pellet relative to pellet plus supernatant, without 5S rRNA [7]: 0.53
- amount in the pellet relative to pellet plus supernatant, with 5S rRNA [8]: 0.71
- amount in the pellet relative to pellet plus supernatant, without 5S rRNA [8]: 0.77
- amount in the pellet relative to pellet plus supernatant, with 5S rRNA [9]: 0.74
- amount in the pellet relative to pellet plus supernatant, without 5S rRNA [9]: 0.78
Substance: SUMO-TbRrs1 (recombinant) (natural protein)

Substance: T. brucei 5S rRNA
- Kd [10]: 54.4 nM
- Kd [11]: 17.5 nM
- Kd [12]: 17 nM
